From patent US20130064834A1 (published 2013)

How the values were obtained:
hPCSK9(P70A) = hPCSK9(P70A) (human, UniProt Q8NBP7 31-692); experiment: SPR, mAb captured, 25C;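 further: antibodies held on a sensor chip bearing chemically coupled F(ab′)2 anti-human IgG as the capture surface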
From the text: (§1) Each selected antibody was captured on a F(ab′)2 anti-hIgG surface created through direct chemical coupling to a BIACORE™ chip to form a captured antibody surface.

hPCSK9(P70A, S147F) = hPCSK9(P70A, S147F) (human, UniProt Q8NBP7 31-692); experiment: SPR, mAb captured, 25C;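 further: antibodies held on a sensor chip bearing chemically coupled F(ab′)2 anti-human IgG as the capture surface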
From the text: as §1

Human PCSK9-myc-myc-his [1] = target: T1, Human PCSK9-myc-myc-his (human, UniProt Q8NBP7 31-692); experiment: SPR, mAb captured, 25C;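 further: antibodies held on a sensor chip bearing chemically coupled F(ab′)2 anti-human IgG as the capture surface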
T1 construct: also called hPCSK9-mmh; hPCSK9
From the text: as §1

hPCSK9(D374Y)-mmh [2] = target: T2, hPCSK9(D374Y)-mmh (human, UniProt Q8NBP7 31-692); experiment: SPR, mAb captured, 25C;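 further: antibodies held on a sensor chip bearing chemically coupled F(ab′)2 anti-human IgG as the capture surface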
T2 construct: also called hPCSK(D374Y)-mmh
From the text: as §1

hPCSK9(S127R) = target: T3, hPCSK9(S127R) (human, UniProt Q8NBP7 31-692); experiment: SPR, mAb captured, 25C
T3 construct: mmh-tagged variant hPCSK9
From the text: as §1

hPCSK9(D129G) = target: T4, hPCSK9(D129G) (human, UniProt Q8NBP7 31-692); experiment: SPR, mAb captured, 25C
T4 construct: mmh-tagged variant hPCSK9
From the text: as §1

hPCSK9(S147F) = target: T5, hPCSK9(S147F) (human, UniProt Q8NBP7 31-692); experiment: SPR, mAb captured, 25C
T5 construct: mmh-tagged variant hPCSK9
From the text: as §1

hPCSK9(S153R) = target: T6, hPCSK9(S153R) (human, UniProt Q8NBP7 31-692); experiment: SPR, mAb captured, 25C
T6 construct: mmh-tagged variant hPCSK9
From the text: as §1

hPCSK9(E159R) = target: T7, hPCSK9(E159R) (human, UniProt Q8NBP7 31-692); experiment: SPR, mAb captured, 25C
T7 construct: mmh-tagged variant hPCSK9
From the text: as §1

hPCSK9(T162R) = target: T8, hPCSK9(T162R) (human, UniProt Q8NBP7 31-692); experiment: SPR, mAb captured, 25C
T8 construct: mmh-tagged variant hPCSK9
From the text: as §1

hPCSK9(D192R) = target: T9, hPCSK9(D192R) (human, UniProt Q8NBP7 31-692); experiment: SPR, mAb captured, 25C
T9 construct: mmh-tagged variant hPCSK9
From the text: as §1

hPCSK9(R194E) = target: T10, hPCSK9(R194E) (human, UniProt Q8NBP7 31-692); experiment: SPR, mAb captured, 25C
T10 construct: mmh-tagged variant hPCSK9
From the text: as §1

hPCSK9(E197R) = target: T11, hPCSK9(E197R) (human, UniProt Q8NBP7 31-692); experiment: SPR, mAb captured, 25C
T11 construct: mmh-tagged variant hPCSK9
From the text: as §1

hPCSK9(R215H) = target: T12, hPCSK9(R215H) (human, UniProt Q8NBP7 31-692); experiment: SPR, mAb captured, 25C
T12 construct: mmh-tagged variant hPCSK9
From the text: as §1

hPCSK9(R215E) = target: T13, hPCSK9(R215E) (human, UniProt Q8NBP7 31-692); experiment: SPR, mAb captured, 25C
T13 construct: mmh-tagged variant hPCSK9
From the text: as §1

hPCSK9(F216L) = target: T14, hPCSK9(F216L) (human, UniProt Q8NBP7 31-692); experiment: SPR, mAb captured, 25C
T14 construct: mmh-tagged variant hPCSK9
From the text: as §1

hPCSK9(R237E) = target: T15, hPCSK9(R237E) (human, UniProt Q8NBP7 31-692); experiment: SPR, mAb captured, 25C
T15 construct: mmh-tagged variant hPCSK9
From the text: as §1

hPCSK9(D238R) = target: T16, hPCSK9(D238R) (human, UniProt Q8NBP7 31-692); experiment: SPR, mAb captured, 25C
T16 construct: mmh-tagged variant hPCSK9
From the text: as §1

hPCSK9(A341R) = target: T17, hPCSK9(A341R) (human, UniProt Q8NBP7 31-692); experiment: SPR, mAb captured, 25C
T17 construct: mmh-tagged variant hPCSK9
From the text: as §1

hPCSK9(D343R) = target: T18, hPCSK9(D343R) (human, UniProt Q8NBP7 31-692); experiment: SPR, mAb captured, 25C
T18 construct: mmh-tagged variant hPCSK9
From the text: as §1

hPCSK9(R357H) = target: T19, hPCSK9(R357H) (human, UniProt Q8NBP7 31-692); experiment: SPR, mAb captured, 25C
T19 construct: mmh-tagged variant hPCSK9
From the text: as §1

hPCSK9(E366K) = target: T20, hPCSK9(E366K) (human, UniProt Q8NBP7 31-692); experiment: SPR, mAb captured, 25C
T20 construct: mmh-tagged variant hPCSK9
From the text: as §1

hPCSK9(V380M) = target: T21, hPCSK9(V380M) (human, UniProt Q8NBP7 31-692); experiment: SPR, mAb captured, 25C
T21 construct: mmh-tagged variant hPCSK9
From the text: as §1

hPCSK9(E366K, V380M) = target: T22, hPCSK9(E366K, V380M) (human, UniProt Q8NBP7 31-692); experiment: SPR, mAb captured, 25C
T22 construct: mmh-tagged variant hPCSK9
From the text: as §1

Human PCSK9-myc-myc-his [3] = target: T1, Human PCSK9-myc-myc-his; experiment: SPR, mAb amine-coupled, 25C, pH 5.5
From the text: Briefly, mAbs were immobilized onto BIACORE™ CM5 sensor chips via amine coupling.

hPCSK9(D374Y)-mmh [4] = target: T2, hPCSK9(D374Y)-mmh; experiment: competition ELISA vs EGF-AB-hFc, pH 5.5
Method: (§2) Briefly, hLDLR-ecto, hLDLR EGF-A-hFc or hLDLR EGF-AB-hFc, each at 2 μg/ml, was coated on a 96-well plate in PBS buffer overnight at 4° C., and nonspecific binding sites blocked with BSA. […] The equilibrated sample solutions were transferred to receptor or receptor fragment coated plates.

[5] = target: T23, tagged rhesus monkey (Macaca mulata) PCSK9 (rhesus monkey (Macaca mulata), UniProt A8T666 31-692); experiment: competition ELISA vs EGF-AB-hFc, pH 7.2
T23 construct: also called mmPCSK9-mmh; mmPCSK9
Method: as §2

[6] = target: T24, mouse PCSK9, myc-myc-his tagged (mouse, UniProt Q80W65 35-694); experiment: competition ELISA vs EGF-AB-hFc, pH 7.2
T24 construct: also called mPCSK9-mmh; mPCSK9
Method: as §2

[7] = target: T24, mouse PCSK9, myc-myc-his tagged; experiment: SPR, mAb captured on anti-hFc, 100 nM antigen
Target sequence in this assay (Q80W65 35-694 limits assumed): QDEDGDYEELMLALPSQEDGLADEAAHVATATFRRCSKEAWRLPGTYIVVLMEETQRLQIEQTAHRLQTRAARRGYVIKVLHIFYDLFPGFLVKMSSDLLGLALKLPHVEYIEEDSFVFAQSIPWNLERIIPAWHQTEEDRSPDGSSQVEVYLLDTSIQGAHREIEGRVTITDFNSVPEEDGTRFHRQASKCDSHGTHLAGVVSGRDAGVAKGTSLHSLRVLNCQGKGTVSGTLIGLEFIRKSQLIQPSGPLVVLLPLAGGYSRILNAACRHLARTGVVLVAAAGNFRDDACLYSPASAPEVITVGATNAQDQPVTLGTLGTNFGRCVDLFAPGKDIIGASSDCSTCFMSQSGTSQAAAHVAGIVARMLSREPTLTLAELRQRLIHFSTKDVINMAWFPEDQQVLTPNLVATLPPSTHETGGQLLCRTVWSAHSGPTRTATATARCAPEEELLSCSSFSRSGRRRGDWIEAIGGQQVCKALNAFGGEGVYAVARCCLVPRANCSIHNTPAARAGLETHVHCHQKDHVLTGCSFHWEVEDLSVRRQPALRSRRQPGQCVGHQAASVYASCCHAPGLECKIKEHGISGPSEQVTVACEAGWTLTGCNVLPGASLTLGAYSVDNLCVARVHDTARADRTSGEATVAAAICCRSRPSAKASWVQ
Method: Changes in RU due to the binding of each protein to the mAb surface was determined.

Human PCSK9-myc-myc-his [8] = target: T1, Human PCSK9-myc-myc-his; experiment: SPR, antigen captured at high density, pH 5.5, 25C

T23 sequence (A8T666 31-692 limits assumed): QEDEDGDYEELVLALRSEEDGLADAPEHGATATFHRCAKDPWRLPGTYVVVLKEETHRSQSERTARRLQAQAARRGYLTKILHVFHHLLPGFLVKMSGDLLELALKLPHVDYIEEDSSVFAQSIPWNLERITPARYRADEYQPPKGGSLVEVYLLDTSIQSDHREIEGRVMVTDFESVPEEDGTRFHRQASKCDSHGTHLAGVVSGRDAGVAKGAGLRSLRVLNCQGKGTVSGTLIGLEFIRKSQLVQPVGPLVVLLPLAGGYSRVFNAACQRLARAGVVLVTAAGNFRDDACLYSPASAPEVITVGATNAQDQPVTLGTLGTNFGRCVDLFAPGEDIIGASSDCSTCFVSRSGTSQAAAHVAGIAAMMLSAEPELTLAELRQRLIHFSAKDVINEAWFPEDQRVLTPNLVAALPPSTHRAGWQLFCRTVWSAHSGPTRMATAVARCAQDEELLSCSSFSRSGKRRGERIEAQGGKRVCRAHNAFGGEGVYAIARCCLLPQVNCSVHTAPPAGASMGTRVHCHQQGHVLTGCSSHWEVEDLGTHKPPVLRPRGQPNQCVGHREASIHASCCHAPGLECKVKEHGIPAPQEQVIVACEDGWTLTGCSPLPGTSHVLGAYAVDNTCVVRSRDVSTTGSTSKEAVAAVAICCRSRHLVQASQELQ

B1: H1M300N (antibody, V domains shown)
VH: EMQLVESGGGLVQPGGSLRLSCAASGFTFSSHWMKWVRQAPGKGLEWVANINQDGSEKYYVDSVKGRFTISRDNAKNSLFLQMNSLRAEDTAVYYCARDIVLMVYDMDYYYYGMDVWGQGTTVTVSS
VL: not shown
notes: Fully human version made in CHO cells
Kd (hPCSK9(P70A)): 1.68 nM | T1/2 (hPCSK9(P70A)): 80 min | Kd (hPCSK9(P70A, S147F)): 7.87 nM | T1/2 (hPCSK9(P70A, S147F)): 24 min | Kd (Human PCSK9-myc-myc-his [1]): 0.69 nM | T1/2 (Human PCSK9-myc-myc-his [1]): 120 min | Kd (hPCSK9(D374Y)-mmh [2]): 0.66 nM | T1/2 (hPCSK9(D374Y)-mmh [2]): 83 min | Kd (hPCSK9(S127R)): 1.87 nM | T1/2 (hPCSK9(S127R)): 110 min | Kd (hPCSK9(D129G)): 1.4 nM | T1/2 (hPCSK9(D129G)): 88 min | Kd (hPCSK9(S147F)): 9.07 nM | T1/2 (hPCSK9(S147F)): 24 min | Kd (hPCSK9(S153R)): 0.56 nM | T1/2 (hPCSK9(S153R)): 141 min | Kd (hPCSK9(E159R)): 0.82 nM | T1/2 (hPCSK9(E159R)): 94 min | Kd (hPCSK9(T162R)): 0.58 nM | T1/2 (hPCSK9(T162R)): 140 min | Kd (hPCSK9(D192R)): 0.75 nM | T1/2 (hPCSK9(D192R)): 119 min | Kd (hPCSK9(R194E)): 0.65 nM | T1/2 (hPCSK9(R194E)): 129 min | Kd (hPCSK9(E197R)): 0.67 nM | T1/2 (hPCSK9(E197R)): 115 min | Kd (hPCSK9(R215H)): 1.03 nM | T1/2 (hPCSK9(R215H)): 98 min | Kd (hPCSK9(R215E)): 1.81 nM | Kd (hPCSK9(F216L)): 0.99 nM | T1/2 (hPCSK9(F216L)): 121 min | Kd (hPCSK9(R237E)): 1.03 nM | T1/2 (hPCSK9(R237E)): 109 min | Kd (hPCSK9(D238R)): 0.78 nM | T1/2 (hPCSK9(D238R)): 123 min | Kd (hPCSK9(A341R)): 0.34 nM | T1/2 (hPCSK9(A341R)): 190 min | Kd (hPCSK9(D343R)): 1.18 nM | T1/2 (hPCSK9(D343R)): 89 min | Kd (hPCSK9(R357H)): 6.53 nM | T1/2 (hPCSK9(R357H)): 66 min | Kd (hPCSK9(E366K)): 36 nM | T1/2 (hPCSK9(E366K)): 2 min | Kd (hPCSK9(V380M)): 2.82 nM | T1/2 (hPCSK9(V380M)): 28 min | Kd (hPCSK9(E366K, V380M)): 78.3 nM | T1/2 (hPCSK9(E366K, V380M)): 1 min | Kd (Human PCSK9-myc-myc-his [3]): 3.1 nM | T1/2 (Human PCSK9-myc-myc-his [3]): 5 min | IC50 (hPCSK9(D374Y)-mmh [4]): 3.94 nM | IC50 [5]: 0.29 nM | IC50 [6]: > 33 nM | change in RU [7]: 13 RU | Kd (Human PCSK9-myc-myc-his [8]): 1.18 nM | T1/2 (Human PCSK9-myc-myc-his [8]): 26 min

B2: H1H316P (antibody, V domains shown)
VH: EVQLVESGGGLVQPGGSLRLSCAASGFTFNNYAMNWVRQAPGKGLDWVSTISGSGGTTNYADSVKGRFIISRDSSKHTLYLQMNSLRAEDTAVYYCAKDSNWGNFDLWGRGTLVTVSS
VL: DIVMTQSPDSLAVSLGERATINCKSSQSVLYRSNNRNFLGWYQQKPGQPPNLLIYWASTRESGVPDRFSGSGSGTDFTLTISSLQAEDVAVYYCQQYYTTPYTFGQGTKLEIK
notes: Fully human mAb made in CHO cells; also called mAb316P
Kd (hPCSK9(P70A)): 1.42 nM | T1/2 (hPCSK9(P70A)): 32 min | Kd (hPCSK9(P70A, S147F)): 1.18 nM | T1/2 (hPCSK9(P70A, S147F)): 34 min | Kd (Human PCSK9-myc-myc-his [1]): 1 nM | T1/2 (Human PCSK9-myc-myc-his [1]): 37 min | Kd (hPCSK9(D374Y)-mmh [2]): 2.04 nM | T1/2 (hPCSK9(D374Y)-mmh [2]): 15 min | Kd (hPCSK9(S127R)): 2.4 nM | T1/2 (hPCSK9(S127R)): 36 min | Kd (hPCSK9(D129G)): 1.27 nM | T1/2 (hPCSK9(D129G)): 36 min | Kd (hPCSK9(S147F)): 1.29 nM | T1/2 (hPCSK9(S147F)): 32 min | Kd (hPCSK9(S153R)): 5.64 nM | T1/2 (hPCSK9(S153R)): 4 min | Kd (hPCSK9(E159R)): 6.96 nM | T1/2 (hPCSK9(E159R)): 5 min | Kd (hPCSK9(T162R)): 0.98 nM | T1/2 (hPCSK9(T162R)): 43 min | Kd (hPCSK9(D192R)): 1.35 nM | T1/2 (hPCSK9(D192R)): 28 min | Kd (hPCSK9(R194E)): 0.38 nM | T1/2 (hPCSK9(R194E)): 71 min | Kd (hPCSK9(E197R)): 1.42 nM | T1/2 (hPCSK9(E197R)): 27 min | Kd (hPCSK9(R215H)): 0.86 nM | T1/2 (hPCSK9(R215H)): 41 min | Kd (hPCSK9(R215E)): 0.9 nM | T1/2 (hPCSK9(R215E)): 43 min | Kd (hPCSK9(F216L)): 1.83 nM | T1/2 (hPCSK9(F216L)): 32 min | Kd (hPCSK9(R237E)): 2.48 nM | T1/2 (hPCSK9(R237E)): 15 min | Kd (hPCSK9(D238R)): 410 nM | T1/2 (hPCSK9(D238R)): 1 min | Kd (hPCSK9(A341R)): 1.54 nM | T1/2 (hPCSK9(A341R)): 21 min | Kd (hPCSK9(D343R)): 7.88 nM | T1/2 (hPCSK9(D343R)): 6 min | Kd (hPCSK9(R357H)): 6.26 nM | T1/2 (hPCSK9(R357H)): 30 min | Kd (hPCSK9(E366K)): 2.92 nM | T1/2 (hPCSK9(E366K)): 13 min | Kd (hPCSK9(V380M)): 0.48 nM | T1/2 (hPCSK9(V380M)): 63 min | Kd (hPCSK9(E366K, V380M)): 3.33 nM | T1/2 (hPCSK9(E366K, V380M)): 12 min | Kd (Human PCSK9-myc-myc-his [3]): 0.022 nM | T1/2 (Human PCSK9-myc-myc-his [3]): 39 min | IC50 (hPCSK9(D374Y)-mmh [4]): 1.14 nM | IC50 [5]: < 0.25 nM | IC50 [6]: < 0.25 nM | change in RU [7]: 505 RU | Kd (Human PCSK9-myc-myc-his [8]): 0.144 nM | T1/2 (Human PCSK9-myc-myc-his [8]): 83 min
